B1: Flag-USP36 wild type [not stated] / Myc-PrimPol WT [not stated] (parent)
chain 1: MPIVDKLKEALKPGRKDSADDGELGKLLASSAKKVLLQKIEFEPASKSFSYQLEALKSKYVLLNPKTEGASRHKSGDDPPARRQGSEHTYESCGDGVPAPQKVLFPTERLSLRWERVFRVGAGLHNLGNTCFLNATIQCLTYTPPLANYLLSKEHARSCHQGSFCMLCVMQNHIVQAFANSGNAIKPVSFIRDLKKIARHFRFGNQEDAHEFLRYTIDAMQKACLNGCAKLDRQTQATTLVHQIFGGYLRSRVKCSVCKSVSDTYDPYLDVALEIRQAANIVRALELFVKADVLSGENAYMCAKCKKKVPASKRFTIHRTSNVLTLSLKRFANFSGGKITKDVGYPEFLNIRPYMSQNNGDPVMYGLYAVLVHSGYSCHAGHYYCYVKASNGQWYQMNDSLVHSSNVKVVLNQQAYVLFYLRIPGSKKSPEGLISRTGSSSLPGRPSVIPDHSKKNIGNGIISSPLTGKRQDSGTMKKPHTTEEIGVPISRNGSTLGLKSQNGCIPPKLPSGSPSPKLSQTPTHMPTILDDPGKKVKKPAPPQHFSPRTAQGLPGTSNSNSSRSGSQRQGSWDSRDVVLSTSPKLLATATANGHGLKGNDESAGLDRRGSSSSSPEHSASSDSTKAPQTPRSGAAHLCDSQETNCSTAGHSKTPPSGADSKTVKLKSPVLSNTTTEPASTMSPPPAKKLALSAKKASTLWRATGNDLRPPPPSPSSDLTHPMKTSHPVVASTWPVHRARAVSPAPQSSSRLQPPFSPHPTLLSSTPKPPGTSEPRSCSSISTALPQVNEDLVSLPHQLPEASEPPQSPSEKRKKTFVGEPQRLGSETRLPQHIREATAAPHGKRKRKKKKRPEDTAASALQEGQTQRQPGSPMYRREGQAQLPAVRRQEDGTQPQVNGQQVGCVTDGHHASSRKRRRKGAEGLGEEGGLHQDPLRHSCSPMGDGDPEAMEESPRKKKKKKRKQETQRAVEEDGHLKCPRSAKPQDAVVPESSSCAPSANGWCPGDRMGLSQAPPVSWNGERESDVVQELLKYSSDKAYGRKVLTWDGKMSAVSQDAIEDSRQARTETVVDDWDEEFDRGKEKKIKKFKREKRRNFNAFQKLQTRRNFWSVTHPAKAASLSYRR
chain 2: MNRKWEAKLKQIEERASHYERKPLSSVYRPRLSKPEEPPSIWRLFHRQAQAFNFVKSCKEDVHVFALECKVGDGQRIYLVTTYAEFWFYYKSRKNLLHCYEVIPENAVCKLYFDLEFNKPANPGADGKKMVALLIEYVCKALQELYGVNCSAEDVLNLDSSTDEKFSRHLIFQLHDVAFKDNIHVGNFLRKILQPALDLLGSEDDDSAPETTGHGFPHFSEAPARQGFSFNKMFTEKATEESWTSNSKKLERLGSAEQSSPDLSFLVVKNNMGEKHLFVDLGVYTRNRNFRLYKSSKIGKRVALEVTEDNKFFPIQSKDVSDEYQYFLSSLVSNVRFSDTLRILTCEPSQNKQKGVGYFNSIGTSVETIEGFQCSPYPEVDHFVLSLVNKDGIKGGIRRWNYFFPEELLVYDICKYRWCENIGRAHKSNNIMILVDLKNEVWYQKCHDPVCKAENFKSDCFPLPAEVCLLFLFKEEEEFTTDEADETRSNETQNPHKPSPSRLSTGASADAVWDNGIDDAYFLEATEDAELAEAAENSLLSYNSEVDEIPDELIIEVLQE

Variants of: B1
Experiment: co-immunoprecipitation (anti-Flag agarose beads), immunoblot band quantification
Conditions: with Myc-PrimPol WT; USP36 stably knocked-down HEK293T cells; HU (10 mM) for 8 h; parent: 1.6; read off a plot; scale: relative band intensity

response	Variant
1.6	chain 1 K329R K338R

Same assay, conditions: with Myc-PrimPol WT; USP36 stably knocked-down HEK293T cells; untreated (Ctrl); parent: 1; read off a plot; scale: relative band intensity

response	Variant
1.6	chain 1 K329R K338R
